# Article PMC9592637, “Functional characterization and transcriptional repression by Lacticaseibacillus paracasei DinJ-YafQ” (Applied Microbiology and Biotechnology, 2022)
# Columns and labels:
# [1] = tested on: DinJ (Lacticaseibacillus paracasei 4366); test: EMSA; settings: KDapp, Hill n 3.7 ± 0.2; salmon sperm DNA competitor; EMSA: 2 nM DNA, 128 ng salmon sperm DNA in 10 uL, 50 mM Tris-HCl pH 7.5, 50 mM KCl, 5% glycerol, room temperature 10 min, 6% native PAGE in TBE; RNAP …
# [2] = molecular target: the molecule itself; test: cross-linking; glutaraldehyde 0.1%, then SDS-PAGE; DinJ at 4 and 10 uM, DinJ-YafQ at 2 and 4 uM
Molecule,Kd [1],stoichiometry N [2]
194-bp dinJ-yafQ promoter fragment,0.061 µM,–
"His-tagged DinJ (L. paracasei antitoxin DinJ, N-terminal hexa-His tag) (natural protein) MSNEKRETRLSIRIDPALKEAAQNVANDMGMDLSTAVNMFLAKIVKDHALPFTPTSLPAETLQALKEAKSSRVLKRYRTPEVMWKDLEV",–,2
